Assay results from US5474766, “Methods and compositions for inhibition of hepatic clearance of tissue-type plasminogen activator” (Washington University, dated 1995).
Each block holds one molecule with its values, some of them ahead of it.

What was measured:
[1] = target: low density lipoprotein receptor-related protein (LRP) on rat MH1C1 hepatoma cells (rat); assay: competition of 125I-t-PA binding to MH1C1 cells by recombinant rat 39 kDa protein
[2] = target: low density lipoprotein receptor-related protein (LRP) on rat MH1C1 hepatoma cells (rat); assay: saturation binding to MH1C1 cells, Scatchard; simultaneous assays, n=4
[3] = target: low density lipoprotein receptor-related protein (LRP) on rat MH1C1 hepatoma cells (rat); assay: saturation binding to MH1C1 cells, Scatchard; summary of 7 experiments
[4] = target: low density lipoprotein receptor-related protein (LRP) on rat MH1C1 hepatoma cells (rat); assay: competition of 125I-t-PA binding to MH1C1 cells
[5] = target: low density lipoprotein receptor-related protein (LRP) on rat MH1C1 hepatoma cells (rat); assay: saturation binding to MH1C1 cells pre-incubated with 0.1% saponin, Scatchard; n=3 (ligand label as printed, doubtful)
[6] = target: low density lipoprotein receptor-related protein (LRP) on rat MH1C1 hepatoma cells (rat); assay: competition of 4 nM 125I-t-PA binding to MH1C1 cells; buffer alone exhibited 20-30% inhibition
[7] = target: low density lipoprotein receptor-related protein (LRP) on rat MH1C1 hepatoma cells (rat)
[8] = target: T1, low density lipoprotein receptor-related protein (LRP) on human hepatoma HepG2 cells (human, UniProt Q07954); assay: saturation binding to HepG2 cells at 4 C, Scatchard; five experiments
Experimental: (§1) Cells were seeded into multiwell (12 wells/plate) disposable plastic tissue culture plates 2 days prior to assay. Ligand binding buffer for t-PA was composed of phosphate-buffered saline (PBS) supplemented with 0.2 mM CaCl_2 and 10 mM EACA, whereas PBSc (PBS containing 1 mM CaCl_2 and 0.5 mM MgCl_2) was used for 39 kDa protein binding. Binding experiments were performed at 4° C. to prevent possible concomitant internalization during the binding interval. Cell monolayers were washed three times on ice with prechilled binding buffer. Binding was initiated by adding 0.5 ml binding buffer containing selected concentrations of ^125I-labelled ligand in the absence or presence of an excess unlabelled ligand (1 μM). After incubation at 4° C. for 1.5 hours, buffer containing unbound ligand was removed. Cells were then washed three times with binding buffer and lysed in 0.0625M Tris-HCl, pH 6.8, containing 0.2% (w/v) SDS and 10% (v/v) glycerol ("low-SDS lysis buffer"). Radioactivity of cell lysates was quantified by γ scintillation spectrometry. For some experiments, cell lysates were further analyzed by SDS-PAGE and autoradiography as described below. Total binding was determined in the presence of ^125I-labelled ligand alone. Nonspecific binding was determined in the presence of excess unlabelled ligand. Specific ligand binding was defined as the difference between total and nonspecific binding. […]

[9] = target: low density lipoprotein receptor-related protein (LRP) on human hepatoma HepG2 cells (human) (UniProt Q07954)
[10] = target: low density lipoprotein receptor-related protein (LRP) on rat MH1C1 hepatoma cells (rat); assay: saturation binding to untreated MH1C1 cells, Scatchard; n=3
[11] = target: low density lipoprotein receptor-related protein (LRP) on rat MH1C1 hepatoma cells (rat); assay: saturation binding of 125I-ligand to MH1C1 cells at 4 C, Scatchard analysis (one experiment, FIG. 1A)
[12] = target: T1, low density lipoprotein …; assay: saturation binding to HepG2 cells at 4 C, Scatchard; one experiment
Experimental: as §1

[13] = target: low density lipoprotein receptor-related protein (LRP) on rat MH1C1 hepatoma cells (rat); assay: competition of 3 nM 125I-t-PA binding to MH1C1 cells at 4 C
[14] = target: low density lipoprotein receptor-related protein (LRP) on rat MH1C1 hepatoma cells (rat); assay: saturation binding to MH1C1 cells, Scatchard; summary of 10 experiments
[15] = target: low density lipoprotein receptor-related protein (LRP) on human hepatoma HepG2 cells (human) (UniProt Q07954); remark: listed apart in the source
[16] = target: low density lipoprotein receptor-related protein (LRP) on rat MH1C1 hepatoma cells (rat); assay: competition of 4 nM 125I-t-PA binding to MH1C1 cells, protein eluted from PVDF
[17] = target: low density lipoprotein receptor-related protein (LRP) on rat MH1C1 hepatoma cells (rat); assay: competition of 4 nM 125I-t-PA binding to MH1C1 cells, fragment eluted from PVDF

Molecule: tissue-type plasminogen activator (t-PA) (from UniProt P00750) (enzyme)
Kd [2]: 5.6 nM
Kd [3]: 4.9 nM
Ki [4]: 8 nM
Kd [5]: 9.1 nM

B1: 20 kDa N-terminal fragment of the 39 kDa protein (ligand)
chain: YSREKNQPKPSPKRESGEEFRMEKLNQLWEKAQRLHLPPVRLAELHADLKIQERDELAWKKLKLDGLDEDGEKEARLIRNLNVILAKYGLDGKKDARQVTSNSLSGTQEDGLDD
percent inhibition at 16 nM [6]: 10%

B2: 39 kDa protein (ligand)
chain: YSREKNQPKPSPKRESGEEFRMEKLNQLWEKAQRLHLPPVRLAELHADLKIQERDELAWKKLKLDGLDEDGEKEARLIRNLNVILAKYGLDGKKDARQVTSNSLSGTQEDGLDDPRLEKLWHKAKTSGKFSGEELDKLWREFLHHKEKVHEYNVLLETLSRTEEIHENVISPSDLSDIKGSVLHSRHTELKEKLRSINQGLDRLRRVSHQGYSTEAEFEEPRVIDLWDLAQSANLTDKELEAFREELKHFEAKIEKHNHYQKQLEIAHEKLRHAESVGDGERVSRSREKHALLEGRTKELGYTVKKHLQDLSGRISRARHNEL
Kd [2]: 3.5 nM
rate of ligand uptake and degradation at 37° C. (fmol/10^6 cells/minute) [7]: 52
Kd [8]: 5.1 nM
specific ^125 I-t-PA uptake by HepG2 cells (cell-associated radioactivity) [9]: 70%
Kd [10]: 2.7 nM
Kd [11]: 3.2 nM
Kd [12]: 4.9 nM
IC50 [13]: < 1 nM
Kd [14]: 3.3 nM
specific degradation of ^125 I-t-PA by HepG2 cells (TCA-soluble radioactivity) [15]: 75%
IC50 [16]: 1 nM
concentration at 90% inhibition [16]: 8 to 10 nM

Now from value to molecule:

Ki [1]: 0.5 nM
Molecule: rat 39 kDa protein (from UniProt Q99068) (ligand)

IC50 [17]: 4 nM
concentration at 90% inhibition [17]: 16 nM
B3: 28 kDa C-terminal fragment of the 39 kDa protein (ligand)
chain: PRLEKLWHKAKTSGKFSGEELDKLWREFLHHKEKVHEYNVLLETLSRTEEIHENVISPSDLSDIKGSVLHSRHTELKEKLRSINQGLDRLRRVSHQGYSTEAEFEEPRVIDLWDLAQSANLTDKELEAFREELKHFEAKIEKHNHYQKQLEIAHEKLRHAESVGDGERVSRSREKHALLEGRTKELGYTVKKHLQDLSGRISRARHNEL
